Source: patent US20250281611A1 (BIOSCEPTRE AUST, published 2025)

T1: CD19 (UniProt P15391 20-556, limits assumed)
T1 construct: whole, on cells; also called CD19 on JeKo-1
T1 sequence (looked up): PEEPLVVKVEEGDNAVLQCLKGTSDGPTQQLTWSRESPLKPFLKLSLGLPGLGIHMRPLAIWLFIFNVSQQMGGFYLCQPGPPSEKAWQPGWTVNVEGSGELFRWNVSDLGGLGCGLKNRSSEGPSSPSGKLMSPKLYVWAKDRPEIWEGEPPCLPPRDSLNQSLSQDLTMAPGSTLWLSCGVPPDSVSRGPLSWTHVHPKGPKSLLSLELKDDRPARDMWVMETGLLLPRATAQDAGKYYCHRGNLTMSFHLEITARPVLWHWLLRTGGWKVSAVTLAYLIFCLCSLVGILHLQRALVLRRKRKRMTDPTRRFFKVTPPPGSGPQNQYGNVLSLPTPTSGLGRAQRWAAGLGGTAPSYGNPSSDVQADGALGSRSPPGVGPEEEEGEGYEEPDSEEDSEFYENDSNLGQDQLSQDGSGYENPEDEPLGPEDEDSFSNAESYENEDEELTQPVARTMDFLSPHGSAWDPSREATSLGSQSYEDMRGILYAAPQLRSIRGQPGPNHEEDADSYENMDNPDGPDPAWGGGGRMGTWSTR


Key:
CD19 [1] = molecular target: T1, CD19; assay: flow cytometry, JeKo-1 cells, bridge at saturating conc., BIL03s-AF647 detection
Experimental: (§1) JeKo-1 cells were incubated with different CD19 BRiDGE variants at saturating concentrations. […] The MFI intensity correlates with the number of secondary bound antibodies bound to the CD19 BRiDGE variants that are only detected if they are bound to the JeKo-1 cells. MFI: median fluorescence intensity. BLitz: Bio-Layer interferometry (BLI) technology using HIS-tag identification tips. […] The higher the MFIR, the stronger the binding.

nfP2X7 CAR 1 [2] = molecular target: T2, nfP2X7 CAR 1; assay: flow cytometry, anti-His-FITC, MFI on EGFR+ (CAR+) T cells over background 0.44
T2 construct: CAR-positive cells gated by the co-expressed EGFR marker; also called nfP2X7 targeted CAR; nfP2X7 CAR on EGFR+ T cells
In short: (§2)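 CAR T cells incubated with BRiDGE variants at saturating concentrations; bound BRiDGE detected with anti-His-FITC by flow cytometry. EGFR marks CAR expression. Value is median fluorescence intensity on EGFR+ (CAR+) cells divided by that on EGFR− (CAR−) cells.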

CD19 [3] = molecular target: T1, CD19; assay: flow cytometry, JeKo-1 cells, bridge at saturating conc., anti-His-FITC detection
Experimental: as §1

CD19 [4] = molecular target: T1, CD19; assay: flow cytometry, JeKo-1 cells, anti-His-FITC detection, MFI over no-bridge control
Experimental: as §1

CD19 [5] = molecular target: T1, CD19; assay: flow cytometry, JeKo-1 cells, BIL03s-AF647 detection, MFI over no-bridge control
Experimental: as §1

nfP2X7 CAR 1 [6] = molecular target: T2, nfP2X7 CAR 1; assay: flow cytometry, anti-His-FITC, MFI on EGFR+ (CAR+) over EGFR- (CAR-) T cells
In short: as §2

nfP2X7 CAR 1 [7] = molecular target: T2, nfP2X7 CAR 1; assay: flow cytometry, nfP2X7 CAR 1 T cells (EGFR+ gate), anti-His-FITC detection

MFI Bil03 AF647 (CD19 [1])	HisTag MFI Ratio (background 0.44) (nfP2X7 CAR 1 [2])	MFI HisTag FITC (CD19 [3])	MFIR HisTag FITC (CD19 [4])	MFIR BIL03 AF647 (CD19 [5])	HisTag MFI Ratio of EGFR+/EGFR- (nfP2X7 CAR 1 [6])	MFI HisTag FITC in EGFR+ Population (nfP2X7 CAR 1 [7])	Binder
5.83	6.1	2.13	2.77	12.7	3.9	2.67	CD19 BRIDGE variant B31 (Fab) heavy: EVQLVESGGGLVKPGGSLKLSCAASGYTFTSYVMHWVRQAPGKGLEWIGYINPYNDGTKYNEKFQGRVTISSDKSISTAYMELSSLRSEDTAMYYCARGTYYYGTRVFDYWGQGTLVTVSSASTKGPSVFPLAPSSKSTSGGTAALGCLVKDYFPEPVTVSWNSGALTSGVHTFPAVLQSSGLYSLSSVVTVPSSSLGTQTYICNVNHKPSNTKVDKKVEPKSCHHHHHH light: DFPGHNYTTRNILPGLNITSEPKSSDKTHTGGGGSDIVMTQSPATLSLSPGERATLSCRSSKSLQNVNGNTYLYWFQQKPGQSPQLLIYRMSNLNSGVPDRFSGSGSGTEFTLTISSLEPEDFAVYYCMQHLEYPITFGAGTKLEIKRTVAAPSVFIFPPSDEQLKSGTASVVCLLNNFYPREAKVQWKVDNALQSGNSQESVTEQDSKDSTYSLSSTLTLSKADYEKHKVYACEVTHQGLSSPVTKSFNRGEC
8.99	5.9	2.3	2.99	19.5	4	2.61	CD19 BRIDGE variant B32 (Fab) heavy: EVQLVESGGGLVKPGGSLKLSCAASGYTFTSYVMHWVRQAPGKGLEWIGYINPYNDGTKYNEKFQGRVTISSDKSISTAYMELSSLRSEDTAMYYCARGTYYYGTRVFDYWGQGTLVTVSSASTKGPSVFPLAPSSKSTSGGTAALGCLVKDYFPEPVTVSWNSGALTSGVHTFPAVLQSSGLYSLSSVVTVPSSSLGTQTYICNVNHKPSNTKVDKKVEPKSCHHHHHH light: DFPGHNYTTRNILPGLNITSGSEPKSSDKTHTGGGGSDIVMTQSPATLSLSPGERATLSCRSSKSLQNVNGNTYLYWFQQKPGQSPQLLIYRMSNLNSGVPDRFSGSGSGTEFTLTISSLEPEDFAVYYCMQHLEYPITFGAGTKLEIKRTVAAPSVFIFPPSDEQLKSGTASVVCLLNNFYPREAKVQWKVDNALQSGNSQESVTEQDSKDSTYSLSSTLTLSKADYEKHKVYACEVTHQGLSSPVTKSFNRGEC
7.12	5.4	2.25	2.92	15.5	3.9	2.39	CD19 BRIDGE variant B33 (Fab) heavy: EVQLVESGGGLVKPGGSLKLSCAASGYTFTSYVMHWVRQAPGKGLEWIGYINPYNDGTKYNEKFQGRVTISSDKSISTAYMELSSLRSEDTAMYYCARGTYYYGTRVFDYWGQGTLVTVSSASTKGPSVFPLAPSSKSTSGGTAALGCLVKDYFPEPVTVSWNSGALTSGVHTFPAVLQSSGLYSLSSVVTVPSSSLGTQTYICNVNHKPSNTKVDKKVEPKSCHHHHHH light: DFPGHNYTTRNILPGLNITSGGGGSEPKSSDKTHTGGGGSDIVMTQSPATLSLSPGERATLSCRSSKSLQNVNGNTYLYWFQQKPGQSPQLLIYRMSNLNSGVPDRFSGSGSGTEFTLTISSLEPEDFAVYYCMQHLEYPITFGAGTKLEIKRTVAAPSVFIFPPSDEQLKSGTASVVCLLNNFYPREAKVQWKVDNALQSGNSQESVTEQDSKDSTYSLSSTLTLSKADYEKHKVYACEVTHQGLSSPVTKSFNRGEC
